PMC11871226 (Nature Communications, 2025)

Biological target: Purified human ACSS2 (bacterially expressed) (human, UniProt Q9NR19 1-701)
Test: pull-down

Purified human ACSS2 (bacterially expressed), sequence (Q9NR19 whole entry): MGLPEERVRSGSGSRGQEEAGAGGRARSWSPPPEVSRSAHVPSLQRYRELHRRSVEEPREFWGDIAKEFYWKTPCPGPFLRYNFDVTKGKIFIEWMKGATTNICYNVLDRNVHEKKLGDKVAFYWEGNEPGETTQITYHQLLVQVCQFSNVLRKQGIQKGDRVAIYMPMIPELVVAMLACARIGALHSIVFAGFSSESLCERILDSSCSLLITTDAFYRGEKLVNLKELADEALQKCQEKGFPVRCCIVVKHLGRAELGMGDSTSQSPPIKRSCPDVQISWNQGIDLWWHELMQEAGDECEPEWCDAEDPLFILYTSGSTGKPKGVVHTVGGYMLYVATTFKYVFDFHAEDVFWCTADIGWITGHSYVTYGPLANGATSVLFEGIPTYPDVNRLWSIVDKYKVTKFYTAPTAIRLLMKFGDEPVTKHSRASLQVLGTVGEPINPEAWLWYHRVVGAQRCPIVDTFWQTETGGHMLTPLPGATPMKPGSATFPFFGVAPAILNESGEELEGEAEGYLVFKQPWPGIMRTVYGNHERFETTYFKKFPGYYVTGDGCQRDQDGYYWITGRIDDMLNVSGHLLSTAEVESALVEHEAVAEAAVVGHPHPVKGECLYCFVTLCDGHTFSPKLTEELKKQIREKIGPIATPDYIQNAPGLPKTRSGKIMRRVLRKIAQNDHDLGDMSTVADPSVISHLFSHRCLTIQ

B1: Purified human PAICS (bacterially expressed) (natural protein, UniProt P22234 1-425, looked up)
chain: MATAEVLNIGKKLYEGKTKEVYELLDSPGKVLLQSKDQITAGNAARKNHLEGKAAISNKITSCIFQLLQEAGIKTAFTRKCGETAFIAPQCEMIPIEWVCRRIATGSFLKRNPGVKEGYKFYPPKVELFFKDDANNDPQWSEEQLIAAKFCFAGLLIGQTEVDIMSHATQAIFEILEKSWLPQNCTLVDMKIEFGVDVTTKEIVLADVIDNDSWRLWPSGDRSQQKDKQSYRDLKEVTPEGLQMVKKNFEWVAERVELLLKSESQCRVVVLMGSTSDLGHCEKIKKACGNFGIPCELRVTSAHKGPDETLRIKAEYEGDGIPTVFVAVAGRSNGLGPVMSGNTAYPVISCPPLTPDWGVQDVWSSLRLPSGLGCSTVLSPEGSAQFAAQIFGLSNHLVWSKLRASILNTWISLKQADKKIRECNL
B1: binds.
